Assay results from patent publication US20250339569A1 (3B PHARMACEUTICALS, published 2025).
Values belong to the binder of their own block, whether it stands above or below them. Starred links: 1 amine or outer side, 2 acyl side, 3 side chain; linkers in the order of their positions; H or OH if unused. Positions of bridges follow the written chain, without caps; N, C: chain ends. Non-standard residues stand in square brackets, D forms with d. Groups on a side chain read outwards from the residue. Primed or numbered codes have the meaning given here. ξ: configuration not given here. *: point of attachment. Af3(HySuc) = 3-amino-L-phenylalanine acylated on the ring amine with 2-(3,6-dioxo-1,2,3,6-tetrahydropyridazin-4-yl)acetic acid, O=C(Cc1cc(=O)[nH][nH]c1=O)Nc1cccc(C[C@H](N[*:1])C(=O)[*:2])c1; af3(ac-glu) = lower case: 3-amino-D-phenylalanine, ring amine acylated with N-acetyl-D-glutamic acid, CC(=O)N[C@H](CCC(=O)[*:3])C(=O)Nc1cccc(C[C@@H](N[*:1])C(=O)[*:2])c1; af3(ac-asp) = lower case: 3-amino-D-phenylalanine, ring amine acylated with N-acetyl-D-aspartic acid, CC(=O)N[C@H](CC(=O)[*:3])C(=O)Nc1cccc(C[C@@H](N[*:1])C(=O)[*:2])c1; Af3(MSAc) = 3-aminophenylalanine with 2-methanesulfonylacetyl on the ring amine, CS(=O)(=O)CC(=O)Nc1cccc(C[C@H](N[*:1])C(=O)[*:2])c1; Af3(Iva) = 3-aminophenylalanine with isovaleryl on the ring amine, CC(C)CC(=O)Nc1cccc(C[C@H](N[*:1])C(=O)[*:2])c1; Af3(Ac-Asp) = 3-aminophenylalanine acylated on the ring amine with N-acetyl-aspartic acid; DOTA(In) = O=C1CN2CCN3CCN(CC(=O)*)CCN(CC2)CC(=O)[O][In]([O]1)[O]C(=O)C3; APAc″ = 2-(4-(amino)piperidin-1-yl)acetic acid, NC1CCN(CC(=O)*)CC1; DOTA = O=C(O)CN1CCN(CC(=O)O)CCN(CC(=O)*)CCN(CC(=O)O)CC1; Trp(5-Cl) = N[C@@H](Cc1c[nH]c2ccc(Cl)cc12)C(=O)O; Phe(3,4-Cl2) = N[C@@H](Cc1ccc(Cl)c(Cl)c1)C(=O)O; Phe(3-CF3) = N[C@@H](Cc1cccc(C(F)(F)F)c1)C(=O)O; ξTrp(7-Me) = Cc1cccc2c(CC(N)C(=O)O)c[nH]c12; ξTrp(1-Me) = Cn1cc(CC(N)C(=O)O)c2ccccc21; Ttds(3) = NCCCOCCOCCOCCCNC(=O)CCC(=O)*; dmo = (R)-dimethylornithine (D form); mXylylene = c1cc(C[*:1])cc(C[*:2])c1; Orn(Me2) = CN(C)CCC[C@H](N)C(=O)O; Isovaleryl = CC(C)CC(=O)*; dPip = O=C(O)[C@H]1CCCCN1; hSer = N[C@@H](CCO)C(=O)O; Ac6c = NC1(C(=O)O)CCCCC1; Nle = CCCC[C@H](N)C(=O)O; 4Amc = not defined here; APAc = not defined here; Apr = not defined here; Dap = NC[C@H](N)C(=O)O; AEEA = NCCOCCOCC(=O)O; Ttds″ = Ttds spacer; Sar = CNCC(=O)O

Assays:
[1] = molecular target: T1, Fc-fusion protein of human carbonic anhydrase IX (human, UniProt Q16790 38-414); test: SPR, captured hCAIX-Fc; t1/2 category B: 5.1-15.0 min
Method: (§1) Stock solutions of test compounds were prepared by dissolving each compound in DMSO. DMSO stock solution were diluted 1:1000 in Running Buffer without DMSO. […] SPR binding analyses were performed in Single Cycle Kinetic (SCK) mode at 25° C.
(§2) For each test compound, SPR raw data in the form of resonance units (RU) were plotted as sensorgrams using the Biacore™ T200 control software. The signal from the blank sensorgram was subtracted from that of the test compound sensorgram (blank corrected). The blank corrected sensorgram was corrected for baseline drift by subtracting the sensorgram of a SCK run without the test compound (running buffer only). […] Raw data and fit results were imported as text files in IDBS. The pKD value (negative decadic logarithm of dissociation constant) was calculated in the IDBS excel template.

[2] = molecular target: T1, Fc-fusion protein of human carbonic …; test: SPR, captured hCAIX-Fc; pKD category A: >8.0
Method: as §1, §2

[3] = molecular target: T1, Fc-fusion protein of human carbonic …; test: SPR, captured hCAIX-Fc; t1/2 category C: 2.1-5.0 min
Method: as §1, §2

t1/2 (half-life of the complex, SPR) [1]: 5.1 to 15 min
pKD [2]: > 8 pkd
Binder: {DOTA-APAc″}-VYCE[dP]D[Af3(MSAc)]LTWSC-NH2 (linker 3-12 via mXylylene) [3BP-4242]

t1/2 (half-life of the complex, SPR) [1]: 5.1 to 15 min
pKD [2]: > 8 pkd
Binder: {DOTA-Ttds(3)}-[Nle]YCE[dP]DWLTWSC-NH2 (linker 3-12 via mXylylene) [3BP-3870]

t1/2 (half-life of the complex, SPR) [1]: 5.1 to 15 min
pKD [2]: > 8 pkd
Binder: {DOTA-APAc″}-VYCE[dP]D[Af3(Ac-Asp)]LTWSC-NH2 (linker 3-12 via mXylylene) [3BP-4363]

t1/2 (half-life of the complex, SPR) [1]: 5.1 to 15 min
pKD [2]: > 8 pkd
Binder: {DOTA(In)}-YCE[dP]KWLEWSC-NH2 (linker 2-11 via mXylylene; lactam 5-8; also: indium complexed by DOTA) [3BP-4053]

t1/2 (half-life of the complex, SPR) [1]: 5.1 to 15 min
pKD [2]: > 8 pkd
Binder: {DOTA-APAc″}-VYCE[dP]D[af3(ac-asp)]LTWSC-NH2 (linker 3-12 via mXylylene; not fully specified) [3BP-4364]

t1/2 (half-life of the complex, SPR) [1]: 5.1 to 15 min
pKD [2]: > 8 pkd
B1: 3BP-3283 (peptide)
peptide: Ac-VYCE[dPip]DWLTWAC-NH2
modifications: linker 3-12 via mXylylene
SMILES: CC(=O)N[C@H](C(=O)N[C@@H](Cc1ccc(O)cc1)C(=O)N[C@H]1CSCc2cccc(c2)CSC[C@@H](C(N)=O)NC(=O)[C@H](C)NC(=O)[C@H](Cc2c[nH]c3ccccc23)NC(=O)[C@H]([C@@H](C)O)NC(=O)[C@H](CC(C)C)NC(=O)[C@H](Cc2c[nH]c3ccccc23)NC(=O)[C@H](CC(=O)O)NC(=O)[C@H]2CCCCN2C(=O)[C@H](CCC(=O)O)NC1=O)C(C)C

t1/2 (half-life of the complex, SPR) [1]: 5.1 to 15 min
pKD [2]: > 8 pkd
Binder: {DOTA-APAc}-VYCE[dP]DW[Ac6c]TWSC-NH2 (linker 3-12 via mXylylene; reading uncertain) [3BP-3584]

t1/2 (half-life of the complex, SPR) [1]: 5.1 to 15 min
pKD [2]: > 8 pkd
B2: 3BP-4253 (peptide)
peptide: {DOTA}-DCE[dP]DWLTW[Dap]C-NH2
modifications: lactam 10-1; linker 2-11 via mXylylene
SMILES: CC(C)C[C@@H]1NC(=O)[C@H](Cc2c[nH]c3ccccc23)NC(=O)[C@H](CC(=O)O)NC(=O)[C@H]2CCCN2C(=O)[C@H](CCC(=O)O)NC(=O)[C@@H]2CSCc3cccc(c3)CSC[C@@H](C(N)=O)NC(=O)[C@H](CNC(=O)C[C@H](NC(=O)CN3CCN(CC(=O)O)CCN(CC(=O)O)CCN(CC(=O)O)CC3)C(=O)N2)NC(=O)[C@H](Cc2c[nH]c3ccccc23)NC(=O)[C@H]([C@@H](C)O)NC1=O

t1/2 (half-life of the complex, SPR) [1]: 5.1 to 15 min
pKD [2]: > 8 pkd
B3: 3BP-3859 (peptide)
peptide: {DOTA}-YCE[dP]DWLTWSC-NH2
modifications: linker 2-11 via mXylylene
SMILES: CC(C)C[C@@H]1NC(=O)[C@H](Cc2c[nH]c3ccccc23)NC(=O)[C@H](CC(=O)O)NC(=O)[C@H]2CCCN2C(=O)[C@H](CCC(=O)O)NC(=O)[C@@H](NC(=O)[C@H](Cc2ccc(O)cc2)NC(=O)CN2CCN(CC(=O)O)CCN(CC(=O)O)CCN(CC(=O)O)CC2)CSCc2cccc(c2)CSC[C@@H](C(N)=O)NC(=O)[C@H](CO)NC(=O)[C@H](Cc2c[nH]c3ccccc23)NC(=O)[C@H]([C@@H](C)O)NC1=O

t1/2 (half-life of the complex, SPR) [1]: 5.1 to 15 min
pKD [2]: > 8 pkd
Binder: Isovaleryl-YCE[dP]DWLTWE([Apr-AEEA-DOTA])C-NH2 (linker 2-11 via 3MeBn; reading uncertain) [3BP-3740]

t1/2 (half-life of the complex, SPR) [1]: 5.1 to 15 min
pKD [2]: > 8 pkd
Binder: {DOTA-APAc″}-VYCE[dP]D[af3(ac-glu)]LTWSC-NH2 (linker 3-12 via mXylylene; not fully specified) [3BP-4362]

t1/2 (half-life of the complex, SPR) [3]: 2.1 to 5 min
pKD [2]: > 8 pkd
Binder: {DOTA-Ttds″}-VYCE[Sar]DWLTWQC-NH2 (linker 3-12 via mXylylene; not fully specified) [3BP-3271]

t1/2 (half-life of the complex, SPR) [1]: 5.1 to 15 min
pKD [2]: > 8 pkd
Binder: {DOTA-APAc}-VYCE[dmo]DWLTWSC-NH2 (linker 3-12 via mXylylene; reading uncertain) [3BP-4097]

t1/2 (half-life of the complex, SPR) [1]: 5.1 to 15 min
pKD [2]: > 8 pkd
Binder: {DOTA-APAc}-VYCE[dP]D[Phe(3-CF3)]LTWSC-NH2 (linker 3-12 via mXylylene; not fully specified; reading uncertain) [3BP-4135]

t1/2 (half-life of the complex, SPR) [1]: 5.1 to 15 min
pKD [2]: > 8 pkd
Binder: {DOTA-APAc″}-VYCE[dP]D[ξTrp(7-Me)]LTWSC-NH2 (linker 3-12 via mXylylene; not fully specified) [3BP-4158]

t1/2 (half-life of the complex, SPR) [1]: 5.1 to 15 min
pKD [2]: > 8 pkd
Binder: {DOTA-APAc}-VYC[Orn(Me2)][dP]DWLTWSC-NH2 (linker 3-12 via mXylylene; reading uncertain) [3BP-4096]

t1/2 (half-life of the complex, SPR) [1]: 5.1 to 15 min
pKD [2]: > 8 pkd
Binder: Ac-K(DOTA)VYCE[dP]DWLTWSC-NH2 (linker 4-13 via 3MeBn) [3BP-3840]

t1/2 (half-life of the complex, SPR) [3]: 2.1 to 5 min
pKD [2]: > 8 pkd
B4: 3BP-3058 (peptide)
peptide: Ac-VYCEGDWLTWAC-NH2
modifications: linker 3-12 via mXylylene
SMILES: CC(=O)N[C@H](C(=O)N[C@@H](Cc1ccc(O)cc1)C(=O)N[C@H]1CSCc2cccc(c2)CSC[C@@H](C(N)=O)NC(=O)[C@H](C)NC(=O)[C@H](Cc2c[nH]c3ccccc23)NC(=O)[C@H]([C@@H](C)O)NC(=O)[C@H](CC(C)C)NC(=O)[C@H](Cc2c[nH]c3ccccc23)NC(=O)[C@H](CC(=O)O)NC(=O)CNC(=O)[C@H](CCC(=O)O)NC1=O)C(C)C

t1/2 (half-life of the complex, SPR) [3]: 2.1 to 5 min
pKD [2]: > 8 pkd
Binder: {DOTA-Ttds″}-VYCEGDWLTWAC-NH2 (linker 3-12 via mXylylene; not fully specified) [3BP-3272]

t1/2 (half-life of the complex, SPR) [1]: 5.1 to 15 min
pKD [2]: > 8 pkd
B5: 3BP-3289 (peptide)
peptide: Ac-VYCE[Sar]D[Trp(5-Cl)]LTWQC-NH2
modifications: linker 3-12 via mXylylene
SMILES: CC(=O)N[C@H](C(=O)N[C@@H](Cc1ccc(O)cc1)C(=O)N[C@H]1CSCc2cccc(c2)CSC[C@@H](C(N)=O)NC(=O)[C@H](CCC(N)=O)NC(=O)[C@H](Cc2c[nH]c3ccccc23)NC(=O)[C@H]([C@@H](C)O)NC(=O)[C@H](CC(C)C)NC(=O)[C@H](Cc2c[nH]c3ccc(Cl)cc23)NC(=O)[C@H](CC(=O)O)NC(=O)CN(C)C(=O)[C@H](CCC(=O)O)NC1=O)C(C)C

t1/2 (half-life of the complex, SPR) [1]: 5.1 to 15 min
pKD [2]: > 8 pkd
Binder: {DOTA-APAc}-VYCE[dP]D[Phe(3,4-Cl2)]LTWSC-NH2 (linker 3-12 via mXylylene; not fully specified; reading uncertain) [3BP-4133]

t1/2 (half-life of the complex, SPR) [1]: 5.1 to 15 min
pKD [2]: > 8 pkd
Binder: {DOTA-4Amc}-YCE[dP]DWLTWSC-NH2 (linker 2-11 via mXylylene; reading uncertain) [3BP-3868]

t1/2 (half-life of the complex, SPR) [1]: 5.1 to 15 min
pKD [2]: > 8 pkd
Binder: {DOTA-APAc″}-VYCE[dP]D[ξTrp(1-Me)]LTWSC-NH2 (linker 3-12 via mXylylene; not fully specified) [3BP-4144]

t1/2 (half-life of the complex, SPR) [1]: 5.1 to 15 min
pKD [2]: > 8 pkd
Binder: {DOTA-APAc}-VYC[hSer][dP]DWLTWSC-NH2 (linker 3-12 via mXylylene; reading uncertain) [3BP-4101]

t1/2 (half-life of the complex, SPR) [1]: 5.1 to 15 min
pKD [2]: > 8 pkd
Binder: {DOTA-APAc″}-VYCE[dP]D[Af3(HySuc)]LTWSC-NH2 (linker 3-12 via mXylylene) [3BP-4322]

t1/2 (half-life of the complex, SPR) [1]: 5.1 to 15 min
pKD [2]: > 8 pkd
Binder: {DOTA-APAc″}-VYCE[dP]D[Af3(Iva)]LTWSC-NH2 (linker 3-12 via mXylylene) [3BP-4236]

t1/2 (half-life of the complex, SPR) [1]: 5.1 to 15 min
pKD [2]: > 8 pkd
Binder: {DOTA-APAc}-V[Orn(Me2)]CE[dP]DWLTWSC-NH2 (linker 3-12 via mXylylene; reading uncertain) [3BP-4095]
